Data taken from article PMC8334859, “MIR156-Targeted SPL9 Is Phosphorylated by SnRK2s and Interacts With ABI5 to Enhance ABA Responses in Arabidopsis” (Frontiers in Plant Science, 2021).

T1: ABI5-GST (Arabidopsis thaliana, UniProt Q9SJN0 1-442)
T1 construct: ABI5, Arabidopsis thaliana, At2g36270, full-length CDS in pGEX4T-1; printed both as ABI5-GST and as GST-ABI5; also called GST-ABI5; source: Escherichia coli transetta
T1 sequence (looked up): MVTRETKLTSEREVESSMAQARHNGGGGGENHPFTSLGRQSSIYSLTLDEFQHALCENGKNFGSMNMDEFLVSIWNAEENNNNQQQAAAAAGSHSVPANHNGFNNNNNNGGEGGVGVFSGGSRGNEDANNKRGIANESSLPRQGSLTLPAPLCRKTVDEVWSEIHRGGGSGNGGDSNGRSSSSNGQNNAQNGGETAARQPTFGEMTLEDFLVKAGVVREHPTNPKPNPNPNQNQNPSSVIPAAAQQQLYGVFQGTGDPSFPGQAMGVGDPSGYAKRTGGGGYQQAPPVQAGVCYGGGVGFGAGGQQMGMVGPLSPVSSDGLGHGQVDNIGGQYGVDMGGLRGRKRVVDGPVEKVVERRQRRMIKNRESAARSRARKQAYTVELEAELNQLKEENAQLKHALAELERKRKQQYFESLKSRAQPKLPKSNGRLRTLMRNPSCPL


What was measured:
ABI5-GST [1] = molecular target: T1, ABI5-GST; assay: pull-down; in vitro; fusion proteins incubated with glutathione resin overnight in column buffer (20 mM Tris-HCl pH 7.5, 200 mM NaCl, 1 mM PMSF, 1 mM DTT); blots with anti-GST and anti-MBP; conditions: both partners purified
ABI5-GST [2] = molecular target: T1, ABI5-GST; assay: pull-down; in vitro; SPL3 and ABI5 fusion proteins incubated with amylose resin overnight in column buffer (20 mM Tris-HCl pH 7.5, 200 mM NaCl, 1 mM PMSF, 1 mM DTT); blots with anti-GST and anti-MBP; conditions: both partners purified

binding result (ABI5-GST [1])	binding result (ABI5-GST [2])	Binder
binds		MBP-SPL9 (natural protein, Arabidopsis thaliana, UniProt Q700W2 1-375, looked up, SPL9, Arabidopsis thaliana, At2g42200, full-length CDS in pMAL-c2X; source: Escherichia coli transetta, purified) MEMGSNSGPGHGPGQAESGGSSTESSSFSGGLMFGQKIYFEDGGGGSGSSSSGGRSNRRVRGGGSGQSGQIPRCQVEGCGMDLTNAKGYYSRHRVCGVHSKTPKVTVAGIEQRFCQQCSRFHQLPEFDLEKRSCRRRLAGHNERRRKPQPASLSVLASRYGRIAPSLYENGDAGMNGSFLGNQEIGWPSSRTLDTRVMRRPVSSPSWQINPMNVFSQGSVGGGGTSFSSPEIMDTKLESYKGIGDSNCALSLLSNPHQPHDNNNNNNNNNNNNNNTWRASSGFGPMTVTMAQPPPAPSQHQYLNPPWVFKDNDNDMSPVLNLGRYTEPDNCQISSGTAMGEFELSDHHHQSRRQYMEDENTRAYDSSSHHTNWSL
	binds	MBP-SPL3 (natural protein, Arabidopsis thaliana, UniProt P93015 1-131, looked up, SPL3, Arabidopsis thaliana, At2g33810, full-length CDS in pMAL-c2X; source: Escherichia coli transetta) MSMRRSKAEGKRSLRELSEEEEEEEETEDEDTFEEEEALEKKQKGKATSSSGVCQVESCTADMSKAKQYHKRHKVCQFHAKAPHVRISGLHQRFCQQCSRFHALSEFDEAKRSCRRRLAGHNERRRKSTTD
